Experimental findings from paper PMC8885691 (2022) are described below.

Broadly, the Kd is the equilibrium constant for the complex coming apart.

This assay concerns the target p53pΔF19. Description: ITC.

B1: p53-binding domain of human MdmX (N-MdmX, amino acids 22-110) (domain or fragment)
chain: GQINQVRPKLPLLKILHAAGAQGEMFTVKEVMHYLGQYIMVKQLYDQQEQHMVYCGGDLLGELLGRQSFSVKDPSPLYDMLRKNLVTLA
In turn, B1 came in with a Kd of 20.1 µM.
